# From patent US20040248206A1 (FIBROGEN, published 2004)
# T1: PC5444
# T1 construct: Synthetic peptide of the exon 3 region with Ser where native CTGF has Cys
# T1 peptide: PLSSMDVRLPSPDS
# T2: PC5445 (human)
# T2 peptide: RLPSPDSPFPRRVKLPGK
# T3: PEP5 (human)
# T3 peptide: RLPSPDCPFPRRVKL
# T4: P40340 (human)
# T4 peptide: RLPSPDCPFPRRV
# T5: P40341
# T5 construct: Same as P40340 with Ser in place of the Cys
# T5 peptide: RLPSPDSPFPRRV
# T6: P40342 (human)
# T6 peptide: LPSPDCPFPRRVKL
# T7: 10MER
# T7 peptide: SPDSPFPRRV
# T8: 10MER2
# T8 peptide: SPDCPFPRRV
# T9: 9MER
# T9 peptide: PDSPFPRRV
# T10: 9MER2
# T10 peptide: CPFPRRVKL
# T11: 8MER
# T11 peptide: DSPFPRRV
# T12: 8MER2
# T12 peptide: CFPRRVKL
# T13: 7MER
# T13 construct: The N-terminal C is probably the added, non-native cysteine (underlining lost in the text)
# T13 peptide: CPRRVKL
# T14: 6MER
# T14 construct: The N-terminal C is probably the added, non-native cysteine (underlining lost in the text)
# T14 peptide: CRRVKL
# T15: 5MER
# T15 construct: The N-terminal C is probably the added, non-native cysteine (underlining lost in the text)
# T15 peptide: CRVKL
# T16: recombinant human connective tissue growth factor (human, UniProt P29279 27-349)
# T16 construct: Radio-iodinated in the RIA; also called rhCTGF; CTGF
# T16 sequence: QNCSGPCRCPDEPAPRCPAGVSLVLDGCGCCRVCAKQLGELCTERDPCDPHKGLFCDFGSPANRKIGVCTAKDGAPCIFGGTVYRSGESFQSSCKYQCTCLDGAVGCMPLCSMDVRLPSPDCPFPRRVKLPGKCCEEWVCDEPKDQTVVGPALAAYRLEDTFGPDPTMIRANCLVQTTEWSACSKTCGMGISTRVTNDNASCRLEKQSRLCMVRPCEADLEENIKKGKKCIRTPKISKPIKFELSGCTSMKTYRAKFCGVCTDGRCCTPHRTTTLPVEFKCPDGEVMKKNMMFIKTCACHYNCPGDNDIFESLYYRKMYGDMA
# T17: recombinant human connective tissue growth factor (UniProt P29279 27-349)
# T17 chain: T16 sequence
# T18: rat CTGF (rat, UniProt Q9R1E9 25-347)
# T18 construct: also called unlabeled rat CTGF; recombinant rat CTGF
# T18 sequence (looked up): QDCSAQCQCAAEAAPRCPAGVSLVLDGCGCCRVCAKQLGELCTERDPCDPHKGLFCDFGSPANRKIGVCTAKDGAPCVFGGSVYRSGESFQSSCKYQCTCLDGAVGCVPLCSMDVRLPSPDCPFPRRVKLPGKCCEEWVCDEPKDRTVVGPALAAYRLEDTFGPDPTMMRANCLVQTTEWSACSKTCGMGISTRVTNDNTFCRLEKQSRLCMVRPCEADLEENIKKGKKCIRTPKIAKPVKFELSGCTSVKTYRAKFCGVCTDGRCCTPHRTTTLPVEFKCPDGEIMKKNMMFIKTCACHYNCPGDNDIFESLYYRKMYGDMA
# T19: rat CTGF (rat, UniProt Q9R1E9 25-347)
# T19 chain: T18 sequence (looked up)
# B1: mAb1 (antibody, V domains shown)
# VH: EGQLVQSGGGLVHPGGSLRLSCAGSGFTFSSYGMHWVRQAPGKGLEWVSGIGTGGGTYSTDSVKGRFTISRDNAKNSLYLQMNSLRAEDMAVYYCARGDYYGSGSFFDCWGQGTLVTVSS
# VL: DIQMTQSPSSLSASVGDRVTITCRASQGISSWLAWYQQKPEKAPKSLIYAASSLQSGVPSRFSGSGSGTDFTLTISSLQPEDFATYYCQQYNSYPPTFGQGTKLEIKR
# notes: also called exemplary antibody of the invention; antibody of hybridoma cell line 8C12-F10
# B2: CLN1 (antibody, V domains shown)
# VH: B1 VH
# VL: B1 VL
# notes: also called recombinant antibody from COS7 cells co-transfected with plasmids 44a1 and 42b2
# B3: deglycosylated mAb1 (antibody, V domains shown)
# VH: B1 VH
# VL: B1 VL
# modifications: N-linked oligosaccharides removed with peptide N-glycosidase F (PNGase F)
# notes: also called deglycosylated antibody; PNGase F treated mAb1
# Columns and labels:
# PC5444 = molecular target: T1, PC5444; assay: ELISA with synthetic peptide
# PC5445 = molecular target: T2, PC5445; assay: ELISA with synthetic peptide
# PEP5 = molecular target: T3, PEP5; assay: ELISA with synthetic peptide
# P40340 = molecular target: T4, P40340; assay: ELISA with synthetic peptide
# P40341 = molecular target: T5, P40341; assay: ELISA with synthetic peptide
# P40342 = molecular target: T6, P40342; assay: ELISA with synthetic peptide
# 10MER = molecular target: T7, 10MER; assay: ELISA with synthetic peptide
# 10MER2 = molecular target: T8, 10MER2; assay: ELISA with synthetic peptide
# 9MER = molecular target: T9, 9MER; assay: ELISA with synthetic peptide
# 9MER2 = molecular target: T10, 9MER2; assay: ELISA with synthetic peptide
# 8MER = molecular target: T11, 8MER; assay: ELISA with synthetic peptide
# 8MER2 = molecular target: T12, 8MER2; assay: ELISA with synthetic peptide
# 7MER = molecular target: T13, 7MER; assay: ELISA with synthetic peptide
# 6MER = molecular target: T14, 6MER; assay: ELISA with synthetic peptide
# 5MER = molecular target: T15, 5MER; assay: ELISA with synthetic peptide
# [1] = molecular target: T16, recombinant human connective tissue …; assay: RIA, immobilized antibody, [125I]rhCTGF with unlabeled rhCTGF, Scatchard
# Experimental: The affinity of each antibody population identified by epitope mapping was measured using RIA, wherein whole rhCTGF was radio-iodinated and added to wells containing immobilized monoclonal antibody, as follows. Recombinant human CTGF was radiolabeled with ¹²⁵I using the chloramine-T method. (See, Greenwood et al. (1963) Biochem J 89:114-123.) Typically, at least 60% of the ¹²⁵I was incorporated and the specific activity of the labeled CTGF was at least 1×10⁵ cpm/ng, although labeled CTGF of lower specific activity can be used in the radioimmunoassay. Goat anti-human IgG, γFc-specific capture antibody (Jackson ImmunoResearch) in Ca²⁺- and Mg²⁺-free DPBS (Mediatech, Herrndon Va.) was added to the wells of a MAXISORP BREAKAPART microtiter plate (Nalge Nunc International, Rochester N.Y.) and allowed to bind overnight at 4° C. The wells were then blocked with 1% BSA in Ca²⁺- and Mg²⁺-free DPBS for at least 4 hours at 4° C. […] Wells were then washed four times with 0.1% Tween 20 in Ca²⁺- and Mg²⁺-free PBS (Mediatech), and the wells of the microtiter plate were separated and counted in a gamma counter.
# Affinity was estimated graphically by the method of Scatchard (1948, Ann NY Acad Sci 51:660-72). The total concentration of labeled CTGF applied to the plate was calculated as […]
# [2] = molecular target: T17, recombinant human connective tissue …; assay: Scatchard competitive binding; mAb 5 ng/ml
# rat CTGF [3] = molecular target: T18, rat CTGF; assay: RIA, unlabeled rat CTGF competing with [125I]rhCTGF for immobilized antibody
# Experimental: (§1) The affinity of each antibody population identified by epitope mapping was measured using RIA, wherein whole rhCTGF was radio-iodinated and added to wells containing immobilized monoclonal antibody, as follows. Recombinant human CTGF was radiolabeled with ¹²⁵I using the chloramine-T method. (See, Greenwood et al. (1963) Biochem J 89:114-123.) Typically, at least 60% of the ¹²⁵I was incorporated and the specific activity of the labeled CTGF was at least 1×10⁵ cpm/ng, although labeled CTGF of lower specific activity can be used in the radioimmunoassay. Goat anti-human IgG, γFc-specific capture antibody (Jackson ImmunoResearch) in Ca²⁺- and Mg²⁺-free DPBS (Mediatech, Herrndon Va.) was added to the wells of a MAXISORP BREAKAPART microtiter plate (Nalge Nunc International, Rochester N.Y.) and allowed to bind overnight at 4° C. The wells were then blocked with 1% BSA in Ca²⁺- and Mg²⁺-free DPBS for at least 4 hours at 4° C. The blocking solution was removed and 100 μl of test antibody at 2-50 ng/ml in Ca²⁺- and Mg²⁺-free DPBS was added and allowed to bind overnight at 4° C. […] Wells were then washed four times with 0.1% Tween 20 in Ca²⁺- and Mg²⁺-free PBS (Mediatech), and the wells of the microtiter plate were separated and counted in a gamma counter. […]
# [4] = molecular target: T17, recombinant human connective tissue …; assay: Scatchard competitive binding; mAb 10 ng/ml
# [5] = molecular target: T17, recombinant human connective tissue …; assay: Scatchard competitive binding; mAb 25 ng/ml
# [6] = molecular target: T17, recombinant human connective tissue …; assay: Scatchard competitive binding; mAb 2.5 ng/ml
# rat CTGF [7] = molecular target: T19, rat CTGF; assay: Scatchard competitive binding; mAb 5 ng/ml; labeled human CTGF vs unlabeled rat CTGF
# rat CTGF [8] = molecular target: T19, rat CTGF; assay: Scatchard competitive binding; mAb 10 ng/ml; labeled human CTGF vs unlabeled rat CTGF
# [9] = molecular target: T16, recombinant human connective tissue …; assay: not stated (assays as described in Example 4)
# [10] = molecular target: T16, recombinant human connective tissue …; assay: RIA as in Example 4.2
# Experimental: as §1
binder,measurement,setting,value
B1,binding result,PC5444,no binding
same,binding result,PC5445,binds
same,binding result,PEP5,binds
same,binding result,P40340,binds
same,binding result,P40341,no binding
same,binding result,P40342,binds
same,binding result,10MER,no binding
same,binding result,10MER2,no binding
same,binding result,9MER,no binding
same,binding result,9MER2,no binding
same,binding result,8MER,no binding
same,binding result,8MER2,no binding
same,binding result,7MER,no binding
same,binding result,6MER,no binding
same,binding result,5MER,no binding
same,Kd,[1],< 1 nM
same,Kd,[2],0.239 nM
same,binding result,rat CTGF [3],binds
same,Kd,[4],0.271 nM
same,Kd,[5],0.384 nM
same,Kd,[6],0.215 nM
same,Kd,rat CTGF [7],0.317 nM
same,Kd,rat CTGF [8],0.339 nM
B2,Kd,[9],0.8 nM
B3,binding result,[10],binds
